Four molecules from patent publication US20140193432A1 (LIVTECH, published 2014) can be followed below.

In test [1] the target is T1, recombinant protein of the hDlk-1 extracellular region (hDlk-1-His) (human, UniProt P80370 24-303).
T1 construct: not shown: His tag
T1 sequence: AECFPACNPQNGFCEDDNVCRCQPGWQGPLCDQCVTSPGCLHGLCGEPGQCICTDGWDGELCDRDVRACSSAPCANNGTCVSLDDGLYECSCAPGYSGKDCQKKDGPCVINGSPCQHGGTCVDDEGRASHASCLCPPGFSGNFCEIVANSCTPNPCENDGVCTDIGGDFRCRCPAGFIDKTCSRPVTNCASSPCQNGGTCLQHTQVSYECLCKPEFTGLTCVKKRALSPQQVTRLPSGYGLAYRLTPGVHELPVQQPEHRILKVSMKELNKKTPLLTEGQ
Briefly: ELISA second format: hDlk-1-His coated at 0.5 µg/ml, antibody titrated from 5 µg/ml. A general note: An ELISA detects its analyte on a solid surface through an enzyme-linked reagent.

In test [2] the target is T1, recombinant protein of the hDlk-1 …. Briefly: ELISA third format: hDlk-1-His coated at 0.05 µg/ml, purified antibodies.
Protocol: As a third format of ELISA, hDlk-1-His to be coated on a 96-well plate was diluted to a concentration of 1/10, and 0.05 μg/ml hDlk-1-His was then added in an amount of 100 μl/well to the 96-well plate, followed by coating at 4° C. overnight, so as to produce an ELISA plate coated with a low concentration of hDlk-1-His.

B1: humanized BA-1-3D IgG1/κ antibody (HuBA-1-3D-1) (antibody, V domains shown)
VH: QVQLVQSGAEVKKPGASVKVSCKASGYTFTDYAMHWVRQAPGQGLEWIGVISTYYGNTNYNQKFKGKATMTVDTSTSTAYMELRSLRSDDTAVYYCARGGLREYYYAMDYWGQGTMVTVSS
VL: DIVMTQSPDSLAVSLGERATINCKSSQSLLNSSNQKNYLAWYQQKPGQPPKLLVYFASTRESGVPDRFSGSGSGTDFTLTISSLQAEDVAVYYCQQHYSTPPTFGQGTKLEIKR
Broadly, the EC50 is the midpoint of the concentration-response curve. As to B1, in test [1], the 50% effective concentration (EC50) was 0.148 µg/mL.

B2: HuBA-1-3D-1-A24G/T73K (antibody, human IgG1, kappa, V domains shown)
VH: QVQLVQSGAEVKKPGASVKVSCKGSGYTFTDYAMHWVRQAPGQGLEWIGVISTYYGNTNYNQKFKGKATMTVDKSTSTAYMELRSLRSDDTAVYYCARGGLREYYYAMDYWGQGTMVTVSS
VL: DIVMTQSPDSLAVSLGERATINCKSSQSLLNSSNQKNYLAWYQQKPGQPPKLLVYFASTRESGVPDRFSGSGSGTDFTLTISSLQAEDVAVYYCQQHYSTPPTFGQGTKLEIKR
notes: human IgG1/κ; also called A24G/T73K mutant; HuBA-1-3D-A24G/T73K
In the case of B2, the concentration giving a half-maximal response (EC50) in test [2] stood at 0.0355 µg/mL.

B3: humanized BA-1-3D IgG1/κ antibody (HuBA-1-3D-2) (antibody, V domains shown)
VH: QVQLVQSGAEVKKPGASVKVSCKASGYTFTDYAMHWVRQAPGQGLEWIGVISTYYGNTNYNQKFKGRATMTVDTSTSTAYMELRSLRSDDTAVYYCARGGLREYYYAMDYWGQGTMVTVSS
VL: DIVMTQSPDSLAVSLGERATINCKSSQSLLNSSNQKNYLAWYQQKPGQPPKLLVYFASTRESGVPDRFSGSGSGTDFTLTISSLQAEDVAVYYCQQHYSTPPTFGQGTKLEIKR
With B3, the EC50 in test [1] came out at 0.154 µg/mL.

B4: mouse-human chimeric BA-1-3D IgG1/κ antibody (ChBA-1-3D) (antibody, V domains shown)
VH: QVQLQQSGPELVRPGVSVKISCKGSGYTFTDYAMHWVKQSHAKSLEWIGVISTYYGNTNYNQKFKGKATMTVDKSSSTAYMELARLTSEDSAIYYCARGGLREYYYAMDYWGQGTSVTVSS
VL: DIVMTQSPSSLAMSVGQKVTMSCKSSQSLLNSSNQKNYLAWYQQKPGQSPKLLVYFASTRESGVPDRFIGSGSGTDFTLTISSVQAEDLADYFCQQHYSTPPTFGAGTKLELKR
For the molecule B4, the concentration for a half-maximal effect (EC50) in test [2] was determined as 0.0254 µg/mL; in test [1] it was 0.116 µg/mL.
